The results in this text go back to patent US20020197690.

The target of the series is T1, 35S-labeled in vitro translated GID.
T1 chain: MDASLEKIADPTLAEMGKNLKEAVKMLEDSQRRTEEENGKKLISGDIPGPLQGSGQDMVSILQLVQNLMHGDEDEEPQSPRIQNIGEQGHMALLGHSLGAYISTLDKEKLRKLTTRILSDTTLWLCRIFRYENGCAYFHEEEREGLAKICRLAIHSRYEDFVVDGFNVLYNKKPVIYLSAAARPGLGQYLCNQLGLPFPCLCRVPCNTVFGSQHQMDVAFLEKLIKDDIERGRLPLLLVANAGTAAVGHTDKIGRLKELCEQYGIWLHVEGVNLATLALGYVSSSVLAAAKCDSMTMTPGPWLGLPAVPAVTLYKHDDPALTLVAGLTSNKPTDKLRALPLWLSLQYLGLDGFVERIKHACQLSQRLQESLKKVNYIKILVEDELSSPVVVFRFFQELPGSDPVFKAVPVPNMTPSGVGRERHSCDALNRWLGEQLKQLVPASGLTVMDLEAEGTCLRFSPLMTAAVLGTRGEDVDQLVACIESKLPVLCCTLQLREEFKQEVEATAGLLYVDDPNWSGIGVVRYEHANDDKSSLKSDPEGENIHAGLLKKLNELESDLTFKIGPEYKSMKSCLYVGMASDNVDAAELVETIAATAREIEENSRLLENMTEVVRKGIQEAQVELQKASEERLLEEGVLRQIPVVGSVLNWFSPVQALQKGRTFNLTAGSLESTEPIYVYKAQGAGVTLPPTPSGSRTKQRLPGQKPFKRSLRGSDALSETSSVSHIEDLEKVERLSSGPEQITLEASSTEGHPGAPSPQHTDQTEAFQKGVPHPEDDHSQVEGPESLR

B1: recombinant caspase-3 (Pharmingen) (protein)
chain: SGISLDNSYKMDYPEMGLCIIINNKNFHKSTGMTSRSGTDVDAANLRETFRNLKYEVRNKNDLTREEIVELMRDVSKEDHSKRSSFVCVLLSHGEEGIIFGTNGPVDLKKITNFFRGDRCRSLTGKPKLFIIQACRGTELDCGIETDSGVDDDMACHKIPVEADFLYAYSTAPGYYSWRNSKDGSWFIQSLCAMLKQYADKLEFMHILTRVNRKVATEFESFSFDATFHAKKQIPCIVSMLTKELYFYH
B1: the “in vitro caspase-3 assay: cleavage of 35S-labeled in vitro translated GID (SDS-PAGE, autoradiography)” value is “Increasing amounts of caspase-3 incubated with GID resulted in greater amounts of a cleavage product of approximately 58 kDa, which was not observed in the presence of incubation with buffer alone”.
